The text below walks through data of publication PMC3143072, “DNA binding activities of the Herves transposase from the mosquito Anopheles gambiae”.

For data set [1], the target named is T1, Herves transposase (Anopheles gambiae, UniProt Q5QIT5 1-603).
T1 sequence: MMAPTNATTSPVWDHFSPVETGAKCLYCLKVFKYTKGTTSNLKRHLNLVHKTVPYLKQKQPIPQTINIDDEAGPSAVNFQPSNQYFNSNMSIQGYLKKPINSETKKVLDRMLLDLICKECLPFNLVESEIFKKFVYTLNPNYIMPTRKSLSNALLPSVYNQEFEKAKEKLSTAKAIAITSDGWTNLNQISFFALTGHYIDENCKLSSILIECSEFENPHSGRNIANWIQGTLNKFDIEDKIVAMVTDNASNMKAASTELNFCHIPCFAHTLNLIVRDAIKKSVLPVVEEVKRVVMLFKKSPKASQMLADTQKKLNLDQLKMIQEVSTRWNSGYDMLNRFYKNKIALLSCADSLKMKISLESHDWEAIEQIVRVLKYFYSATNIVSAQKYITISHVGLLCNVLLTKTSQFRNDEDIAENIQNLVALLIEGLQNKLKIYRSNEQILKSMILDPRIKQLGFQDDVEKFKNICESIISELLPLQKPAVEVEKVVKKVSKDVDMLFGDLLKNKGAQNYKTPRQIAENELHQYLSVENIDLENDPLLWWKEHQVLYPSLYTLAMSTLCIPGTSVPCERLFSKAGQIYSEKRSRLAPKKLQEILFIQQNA
Description: EMSA; EMSA: 16 mM Tris pH 8.0, 150 mM NaCl, 1 mM DTT, 0.25% Triton X, 0.2 ug BSA, 0.4 ug T3 ss oligo, 0.5 ug poly(dI-dC), 4 C; 100 nM DNA, 850 nM transposase; same binding conditions for DNase I. Conditions: protein: recombinant; tags: His tag (pBAD myc/HisA vector); label: 32P as probe.

Data set [2] deals with T1, Herves transposase. Description: EMSA; two complexes; competed by self; EMSA: 16 mM Tris pH 8.0, 150 mM NaCl, 1 mM DTT, 0.25% Triton X, 0.2 ug BSA, 0.4 ug T3 ss oligo, 0.5 ug poly(dI-dC), 4 C; 100 nM DNA, 850 nM transposase; same binding conditions for DNase I. The conditions noted are these: protein: recombinant; tags: His tag (pBAD myc/HisA vector); label: 32P.
The target in data set [3] is T1, Herves transposase. Description: EMSA; two complexes; EMSA: 16 mM Tris pH 8.0, 150 mM NaCl, 1 mM DTT, 0.25% Triton X, 0.2 ug BSA, 0.4 ug T3 ss oligo, 0.5 ug poly(dI-dC), 4 C; 100 nM DNA, 850 nM transposase; same binding conditions for DNase I. Conditions: protein: recombinant; tags: His tag (pBAD myc/HisA vector); label: 32P as probe.
In data set [4] the target is T1, Herves transposase. Kind of data set: competition; vs Herves-L 1-100 probe, partial compared with bp 1-100; 200-fold; EMSA: 16 mM Tris pH 8.0, 150 mM NaCl, 1 mM DTT, 0.25% Triton X, 0.2 ug BSA, 0.4 ug T3 ss oligo, 0.5 ug poly(dI-dC), 4 C; 100 nM DNA, 850 nM transposase; same binding conditions for DNase I. Conditions: protein: recombinant; tags: His tag (pBAD myc/HisA vector); label: 32P as probe.

Data set [5] concerns the target T1, Herves transposase. Kind of data set: EMSA; one complex; EMSA: 16 mM Tris pH 8.0, 150 mM NaCl, 1 mM DTT, 0.25% Triton X, 0.2 ug BSA, 0.4 ug T3 ss oligo, 0.5 ug poly(dI-dC), 4 C; 100 nM DNA, 850 nM transposase; same binding conditions for DNase I. Conditions: protein: recombinant; tags: His tag (pBAD myc/HisA vector); label: 32P as probe.
For data set [6], the target named is T1, Herves transposase. Kind of data set: competition; vs Herves-L 1-100 probe; 200-fold; EMSA: 16 mM Tris pH 8.0, 150 mM NaCl, 1 mM DTT, 0.25% Triton X, 0.2 ug BSA, 0.4 ug T3 ss oligo, 0.5 ug poly(dI-dC), 4 C; 100 nM DNA, 850 nM transposase; same binding conditions for DNase I. The conditions noted are these: protein: recombinant; tags: His tag (pBAD myc/HisA vector).

Data set [7] concerns the target T1, Herves transposase. Description: EMSA; three complexes; competed by unlabeled bp 1-100; EMSA: 16 mM Tris pH 8.0, 150 mM NaCl, 1 mM DTT, 0.25% Triton X, 0.2 ug BSA, 0.4 ug T3 ss oligo, 0.5 ug poly(dI-dC), 4 C; 100 nM DNA, 850 nM transposase; same binding conditions for DNase I. The conditions noted are these: protein: recombinant; tags: His tag (pBAD myc/HisA vector); label: 32P.

B1: Herves-R bp 46-75 (dsDNA)
DNA 1: GTTCTTTCATTAACATGAACTGAGCGTGAA
DNA 2: TTCACGCTCAGTTCATGTTAATGAAAGAAC
B1: the binding result with Herves transposase [1] is on record as “no binding”.

B2: Herves-R bp 1-100 (dsDNA)
DNA 1: TTGACGTGAACGATTGAATCGCGATTCACGCTCAGTTCATGTTAATGAAAGAACCGGTAAATTCACGTTCATGGTAATGAATCGAATTGCCCAACCCTA
DNA 2: TAGGGTTGGGCAATTCGATTCATTACCATGAACGTGAATTTACCGGTTCTTTCATTAACATGAACTGAGCGTGAATCGCGATTCAATCGTTCACGTCAA
As to B2, in the data set with Herves transposase [2], the binding result is given as “binds”.

B3: Herves-L bp 12-48 (dsDNA)
DNA 1: CTCAAGAACCAGAACTGTACGATTCATTCAATTCATC
DNA 2: GATGAATTGAATGAATCGTACAGTTCTGGTTCTTGAG
For the molecule B3, the binding result in the data set with Herves transposase [3] is “binds”.

B4: Herves-L bp 28-60 (dsDNA)
DNA 1: GTACGATTCATTCAATTCATCCTAAAGAACGAA
DNA 2: TTCGTTCTTTAGGATGAATTGAATGAATCGTAC
With B4, the binding result in the data set with Herves transposase [4] is given as “binds”.

B5: Herves-R bp 15-45 (dsDNA)
DNA 1: TCGATTCATTACCATGAACGTGAATTTACCG
DNA 2: CGGTAAATTCACGTTCATGGTAATGAATCGA
As for B5, in the data set with Herves transposase [5], the binding result was “binds”.

B6: Herves-L bp 1-30 (dsDNA)
DNA 1: TAGAGTTGTGCCTCAAGAACCAGAACTGTA
DNA 2: TACAGTTCTGGTTCTTGAGGCACAACTCTA
In the case of B6, the binding result with Herves transposase [6] is “no binding”.

B7: Herves-L bp 1-100 (dsDNA)
DNA 1: TAGAGTTGTGCCTCAAGAACCAGAACTGTACGATTCATTCAATTCATCCTAAAGAACGAATGACCTACGTTCATCTAATCAACGTTCATCGATTCTTTAT
DNA 2: ATAAAGAATCGATGAACGTTGATTAGATGAACGTAGGTCATTCGTTCTTTAGGATGAATTGAATGAATCGTACAGTTCTGGTTCTTGAGGCACAACTCTA
B7: the binding result with Herves transposase [7] is “binds”.

B8: Herves-R bp 1-30 (dsDNA)
DNA 1: TAGGGTTGGGCAATTCGATTCATTACCATG
DNA 2: CATGGTAATGAATCGAATTGCCCAACCCTA
In the case of B8, in the data set with Herves transposase [3], the binding result is listed as “binds”.

B9: Herves-R bp 61-90 (dsDNA)
DNA 1: TGAACTGAGCGTGAATCGCGATTCAATCGT
DNA 2: ACGATTGAATCGCGATTCACGCTCAGTTCA
For the molecule B9, the binding result with Herves transposase [5] is given as “binds”.

B10: (CGATTCAT)4 (dsDNA)
DNA 1: CGATTCATCGATTCATCGATTCATCGATTCAT
DNA 2: ATGAATCGATGAATCGATGAATCGATGAATCG
As for B10, the binding result in the data set with Herves transposase [3] is “binds”.
